The data set “crystal structure” concerns the molecule itself. The experiment in a line: crystal structure.
A further data set deals with T1, S100B (rat), Ca2+-loaded (rat, UniProt P04631 1-92).
T1 sequence: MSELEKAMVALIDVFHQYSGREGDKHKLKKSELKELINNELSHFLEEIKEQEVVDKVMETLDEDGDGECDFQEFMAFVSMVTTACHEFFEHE
The data set can be described thus: fluorescence polarisation.

Substitutions are numbered along the chain they refer to. In names and notes the source's numbering stands. No end group written: not given here.

B1: Ca2+-bound S100B (bovine) covalently modified at Cys84 by SC124 (natural protein)
chain: T1 sequence with M8V, E63S, S79A, V81I
modifications: Cys84 covalently bound to the adduct of SC124 (disulfiram)
B1: in “crystal structure”, the binding result is “binds”.

B2: Ca2+-bound S100B (bovine) covalently modified at Cys84 by SC1475 (natural protein)
chain: T1 sequence with M8V, E63S, S79A, V81I
modifications: Cys84 covalently bound to SC1475 (3,4-dimethoxydalbergione)
For B2, the binding result in the data set “crystal structure” was “binds”.

B3: Ca2+-bound S100B (bovine) covalently modified at Cys84 by SBi4172 (natural protein)
chain: T1 sequence with M8V, E63S, S79A, V81I
modifications: Cys84 covalently bound to SBi4172 (chelerythrine); the compound could be modelled in chain B only
Consider B3, for which, in “crystal structure”, the binding result is “binds”.

B4: Ca2+-bound S100B (bovine) covalently modified at Cys84 by SBi4434 (natural protein)
chain: T1 sequence with M8V, E63S, S79A, V81I
modifications: Cys84 covalently bound to SBi4434 (2,3-bis[(2-hydroxyethyl)thio]-1,4-naphthoquinone), the thiol replacing one thioglycol moiety
As for B4, in “crystal structure”, the binding result is listed as “binds”.

B5: Ca2+-bound S100B (bovine) covalently modified at Cys84 by SC1982 (natural protein)
chain: T1 sequence with M8V, E63S, S79A, V81I
modifications: Cys84 covalently bound to SC1982 (Rubescensin A) by Michael addition
Consider B5, for which, in “crystal structure”, the binding result is on record as “binds”.
Take TRTKIDWNKILS (also: TAMRA label, position not given here) [TAMRA-labeled peptide TRTK12]: in the data set with S100B (rat), Ca2+-loaded, the binding result is “binds”.

These data come from article PMC4211652 (Biochemistry, 2014).
